Results on one substance are retold here after US7989192B2, “Modified beta-lactamase and method for its preparation” (IPSAT Therapies Oy, priority 2006, dated 2011).

What all share (test): purified protein, by the assay type
Common to all, as to assay type: biochemical, Bacillus cereus
Settings in all cases: other: 10 mM phosphate buffer, pH 7.0, 30° C, Hanes plot, mean of three independent measurements

For series [1], the system named is CC1(C)S[C@@H]2[C@H](NC(=O)[C@H](N)c3ccc(O)cc3)C(=O)N2[C@H]1C(=O)O. As for the experimental part: (§1) The enzyme kinetic parameters kcat and Km were determined from initial rates by Hanes plot. The reactions were performed in 10 mM phosphate buffer, pH 7.0 at 30° C. The reaction cuvette (one mL) contained about 5 pmol of enzyme in all reactions except 1.7 pmol of enzyme in the meropenem assay. The hydrolysis of various beta-lactam substrates was spectrophometrically recorded at a wavelength specific for each substrate.
(§2) Values for different kinetic parameters (kcat, Km and kcat/Km) that represent mean values obtained from three independent measurements are reported in Table 6.

The subject of series [2] is CO/N=C(\C(=O)N[C@@H]1C(=O)N2C(C(=O)O)=C(COC(C)=O)CS[C@H]12)c1csc(N)n1. How it is done:
as §1, §2

In series [3] the test system is CCN1CCN(C(=O)N[C@@H](C(=O)N[C@@H]2C(=O)N3[C@@H]2SC(C)(C)[C@@H]3C(=O)O)c2ccccc2)C(=O)C1=O. As for the experimental part:
as §1, §2

For series [4], the system named is CC1(C)S[C@@H]2[C@H](NC(=O)[C@H](N)c3ccccc3)C(=O)N2[C@H]1C(=O)O. As for the experimental part:
as §1, §2

The subject of series [5] is CO/N=C(\C(=O)N[C@@H]1C(=O)N2C(C(=O)O)=C(COC(N)=O)CS[C@H]12)c1ccco1. How it is done: as §1, §2
Series [6] deals with C[C@@H](O)[C@H]1C(=O)N2C(C(=O)O)=C(S[C@@H]3CN[C@H](C(=O)N(C)C)C3)[C@H](C)[C@H]12. How it is done: as §1, §2
The subject of series [7] is CO/N=C(\C(=O)N[C@@H]1C(=O)N2C(C(=O)O)=C(CSc3nc(=O)c(=O)[nH]n3C)CS[C@H]12)c1csc(N)n1. As for the experimental part: as §1, §2

On to “P2A metallo-beta-lactamase (Bacillus cereus)”, for which the Michaelis-Menten constant (Km) stood at 716 µM in series [1]; 66 µM in series [2]; 372 µM in series [3]; 942 µM in series [4]; 27 µM in series [5]; 410 µM in series [6]. Further, the Michaelis constant (Km) in series [7] worked out at 68 µM.
